# Test results: patent publication US20050118674A1, “Engineering of Controlled Deamidation Rates in Peptides, Proteins, and Similar Structures” (priority 2003, published 2005)
# Assay: First-order nonenzymatic deamidation of pentapeptides in Tris buffer
# Assay type: physicochemical
# Conditions: pH 7.4, 37.0° C., 0.15 M Tris HCl; Asn pentapeptides
# Outline: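 First-order deamidation rates determined for XxxAsnYyy and XxxGlnYyy pentapeptides in 0.15 M Tris buffer, pH 7.4, 37° C. Not all values were measured directly: several Asn rates were estimated and most Gln rates came from surface fitting.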
row,Substance,First-Order Deamidation Halftimes of GlyXxxAsnYyyGly [days]
1,GlyPheAsnThrGly (GFNTG; printed: GlyPheAsnThrGly),39.0
2,GlyPheAsnTrpGly (GFNWG; printed: GlyPheAsnTrpGly),102
3,GlyPheAsnTyrGly (GFNYG; printed: GlyPheAsnTyrGly),75.1
4,GlyPheAsnValGly (GFNVG; printed: GlyPheAsnValGly),203
5,GlyProAsnAlaGly (GPNAG; printed: GlyProAsnAlaGly),31.8
6,GlyProAsnAmCysGly,43.7
7,GlyProAsnArgGly (GPNRG; printed: GlyProAsnArgGly),72.9
8,GlyProAsnAspGly (GPNDG; printed: GlyProAsnAspGly),48.6
9,GlyProAsnCysGly (GPNCG; printed: GlyProAsnCysGly),60.0
10,GlyProAsnGluGly (GPNEG; printed: GlyProAsnGluGly),92.0
11,GlyProAsnGlyGly (GPNGG; printed: GlyProAsnGlyGly),1.18
12,GlyProAsnHisGly (GPNHG; printed: GlyProAsnHisGly),12.8
13,GlyProAsnIleGly (GPNIG; printed: GlyProAsnIleGly),455
14,GlyProAsnLeuGly (GPNLG; printed: GlyProAsnLeuGly),181
15,GlyProAsnLysGly (GPNKG; printed: GlyProAsnLysGly),67.8
16,GlyProAsnMetGly (GPNMG; printed: GlyProAsnMetGly),78.4
17,GlyProAsnPheGly (GPNFG; printed: GlyProAsnPheGly),100
18,GlyProAsnProGly (GPNPG; printed: GlyProAsnProGly),6590
19,GlyProAsnSerGly (GPNSG; printed: GlyProAsnSerGly),18.9
20,GlyProAsnThrGly (GPNTG; printed: GlyProAsnThrGly),63.1
21,GlyProAsnTrpGly (GPNWG; printed: GlyProAsnTrpGly),122

row,Substance,First-Order Deamidation Halftimes of GlyXxxAsnYyyGly [days]
1,GlyProAsnTyrGly (GPNYG; printed: GlyProAsnTyrGly),114
2,GlyProAsnValGly (GPNVG; printed: GlyProAsnValGly),364
3,GlySerAsnAlaGly (GSNAG; printed: GlySerAsnAlaGly),24.1
4,GlySerAsnAmCysGly,41.3
5,GlySerAsnArgGly (GSNRG; printed: GlySerAsnArgGly),59.7
6,GlySerAsnAspGly (GSNDG; printed: GlySerAsnAspGly),30.3
7,GlySerAsnCysGly (GSNCG; printed: GlySerAsnCysGly),60.2
8,GlySerAsnGluGly (GSNEG; printed: GlySerAsnGluGly),59.7
9,GlySerAsnGlyGly (GSNGG; printed: GlySerAsnGlyGly),0.96
10,GlySerAsnHisGly (GSNHG; printed: GlySerAsnHisGly),9.0
11,GlySerAsnIleGly (GSNIG; printed: GlySerAsnIleGly),285
12,GlySerAsnLeuGly (GSNLG; printed: GlySerAsnLeuGly),110
13,GlySerAsnLysGly (GSNKG; printed: GlySerAsnLysGly),55.5
14,GlySerAsnMetGly (GSNMG; printed: GlySerAsnMetGly),54.9
15,GlySerAsnPheGly (GSNFG; printed: GlySerAsnPheGly),52.2
16,GlySerAsnProGly (GSNPG; printed: GlySerAsnProGly),7060
17,GlySerAsnSerGly (GSNSG; printed: GlySerAsnSerGly),15.1
18,GlySerAsnThrGly (GSNTG; printed: GlySerAsnThrGly),45.7
19,GlySerAsnTrpGly (GSNWG; printed: GlySerAsnTrpGly),76.8
20,GlySerAsnTyrGly (GSNYG; printed: GlySerAsnTyrGly),64.7
21,GlySerAsnValGly (GSNVG; printed: GlySerAsnValGly),233

# Same assay, conditions: pH 7.4, 37.0 ° C., 0.15 M Tris HCl; Gln pentapeptides; 52 values measured, rest derived from surface fitting
row,Substance,First-Order Deamidation Halftimes of GlyXxxGlnYyyGly [days]
1,GlyPheGlnAlaGly (GFQAG; printed: GlyPheGlnAlaGly),6300
2,GlyPheGlnArgGly (GFQRG; printed: GlyPheGlnArgGly),7200
3,GlyPheGlnAspGly (GFQDG; printed: GlyPheGlnAspGly),8200
4,GlyPheGlnCysGly (GFQCG; printed: GlyPheGlnCysGly),2000
5,GlyPheGlnGluGly (GFQEG; printed: GlyPheGlnGluGly),8100
6,GlyPheGlnGlyGly (GFQGG; printed: GlyPheGlnGlyGly),660
7,GlyPheGlnHisGly (GFQHG; printed: GlyPheGlnHisGly),6200
8,GlyPheGlnIleGly (GFQIG; printed: GlyPheGlnIleGly),6400
9,GlyPheGlnLeuGly (GFQLG; printed: GlyPheGlnLeuGly),6400
10,GlyPheGlnLysGly (GFQKG; printed: GlyPheGlnLysGly),6200
11,GlyPheGlnMetGly (GFQMG; printed: GlyPheGlnMetGly),5100
12,GlyPheGlnPheGly (GFQFG; printed: GlyPheGlnPheGly),8200
13,GlyPheGlnProGly (GFQPG; printed: GlyPheGlnProGly),10000
14,GlyPheGlnSerGly (GFQSG; printed: GlyPheGlnSerGly),5900
15,GlyPheGlnThrGly (GFQTG; printed: GlyPheGlnThrGly),5300
16,GlyPheGlnTrpGly (GFQWG; printed: GlyPheGlnTrpGly),16000
17,GlyPheGlnTyrGly (GFQYG; printed: GlyPheGlnTyrGly),12000
18,GlyPheGlnValGly (GFQVG; printed: GlyPheGlnValGly),7100
19,GlyProGlnAlaGly (GPQAG; printed: GlyProGlnAlaGly),4700

row,Substance,First-Order Deamidation Halftimes of GlyXxxGlnYyyGly [days]
1,GlyProGlnArgGly (GPQRG; printed: GlyProGlnArgGly),6400
2,GlyProGlnAspGly (GPQDG; printed: GlyProGlnAspGly),7200
3,GlyProGlnCysGly (GPQCG; printed: GlyProGlnCysGly),1600
4,GlyProGlnGluGly (GPQEG; printed: GlyProGlnGluGly),6800
5,GlyProGlnGlyGly (GPQGG; printed: GlyProGlnGlyGly),630
6,GlyProGlnHisGly (GPQHG; printed: GlyProGlnHisGly),5200
7,GlyProGlnIleGly (GPQIG; printed: GlyProGlnIleGly),6000
8,GlyProGlnLeuGly (GPQLG; printed: GlyProGlnLeuGly),5800
9,GlyProGlnLysGly (GPQKG; printed: GlyProGlnLysGly),5500
10,GlyProGlnMetGly (GPQMG; printed: GlyProGlnMetGly),4500
11,GlyProGlnPheGly (GPQFG; printed: GlyProGlnPheGly),7300
12,GlyProGlnProGly (GPQPG; printed: GlyProGlnProGly),8900
13,GlyProGlnSerGly (GPQSG; printed: GlyProGlnSerGly),4600
14,GlyProGlnThrGly (GPQTG; printed: GlyProGlnThrGly),4600
15,GlyProGlnTrpGly (GPQWG; printed: GlyProGlnTrpGly),13000
16,GlyProGlnTyrGly (GPQYG; printed: GlyProGlnTyrGly),10000
17,GlyProGlnValGly (GPQVG; printed: GlyProGlnValGly),6200
18,GlySerGlnAlaGly (GSQAG; printed: GlySerGlnAlaGly),6400
19,GlySerGlnArgGly (GSQRG; printed: GlySerGlnArgGly),7200
